Biological target: Pangolin CoV S2-37 (Pangolin CoV)

B1: Antibody SC45 Fab (Fab, V domains shown)
VH: QVQLQESGPGLVKSSETLSLTCTVSGGSISSYYWSWIRQPPGKGLEWIGCIYSSGSTNYNPSLKSRVTISVDSSKNQFSLRLNSVTAADTAVYYCARHKGTDFWSGYSFTPRGGWFDPWGQGALVSVSS
VL: DIQMTQSPSSLSASVGDRVTITCRASQSISSYLNWYQQKPGKAPKLLIYGASNLQSGVPSRFSGSGSETDFTLTISSLQPEDFASYYCQQSHSIPVTFGQGTKLEIK
Q: Which results are given for B1?
A: koff: 0.000923 s⁻¹; kon: 32100 M⁻¹ s⁻¹

Source: patent publication US20250145691A1
